Data published in the RNAGym collection of RNA variant scans (doi:10.1093/molbev/msab373).

B1: Azoarcus group I ribozyme (parent)
chain: GUGCCUUGCGCCGGGAAACCACGCAAGGGAUGGUGUCAAAUUCGGCGAAACCUAAGCGCCCGCCCGGGCGUAUGGCAACGCCGAGCCAAGCUUCGGCGCCUGCGCCGAUGAAGGUGUAGAGACUAGACGGCACCCACCUAAGGCAAACGCUAUGGUGAAGGCAUAGUCCAGGGAGUGGCGAAAGUCACACAAACCGG

Variants of: B1
Assay: reverse-splicing fitness (ratio to wild type); higher = more active; in vitro selection; Mg2+ level not given
Procedure, shortened: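 An in vitro group I ribozyme library with randomized positions was T7-transcribed and gel-purified. In triplicate, 10 pmol RNA in EPPS pH 7.5 was reacted with 50 pmoles of a 30-nt RNA substrate for 1 h at 37 °C across several added MgCl2 levels (1–48 mM), then stopped with EDTA. Products were reverse transcribed from a substrate-complementary primer, PCR-amplified and sequenced (HiSeq 4000). Fitness is a variant's read proportion after selection over that before, normalised to wild type.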
With C82G A111U A120C A145U C150G U176C the reverse-splicing fitness was 0.00903. Variant C82G A111U A120C A145U C150G U176A has a reverse-splicing fitness of 0.0058. C82G A111U A120C A145U C150G U176G gave a reverse-splicing fitness of 0.00406. For C82G A111U A120C A145C C150G C169A U176A, the reverse-splicing fitness was 0.0101. C82G A111U A120C A145C C150G C169A U176C gave a reverse-splicing fitness of 0.00917. Variant C82G A111U A120C A145C C150G C169A U176G has a reverse-splicing fitness of 0.00634. Work on C82G A111U A120C A145G U176C yielded a reverse-splicing fitness of 0.0311. For C82G A111U A120C A145G U176G, the reverse-splicing fitness was 0.00743. Variant C82G A111U A120C A145G U176A has a reverse-splicing fitness of 0.0173. C82G A111U A120C A145G C150A showed a reverse-splicing fitness of 0.0162. Work on C82G A111U A120C A145G C150U yielded a reverse-splicing fitness of 0.0415. Work on C82G A111U A120C A145G C150G yielded a reverse-splicing fitness of 0.0114. Variant C82G A111U A120C A145C C150G C169U U176G has a reverse-splicing fitness of 0.00524. Work on C82G A111U A120C A145C C150G C169U U176A yielded a reverse-splicing fitness of 0.00676. Work on C82G A111U A120C A145C C150G C169U U176C yielded a reverse-splicing fitness of 0.0113. Variant C82G A111G U176C has a reverse-splicing fitness of 0.279. Variant C82G A111G U176G has a reverse-splicing fitness of 0.0956. C82G A111G U176A showed a reverse-splicing fitness of 0.277. In the case of C82G A111G A145U C150G U176C, the reverse-splicing fitness is reported as 0.0287. C82G A111G A145U C150G U176A gave a reverse-splicing fitness of 0.0185. C82G A111G A145U C150G U176G showed a reverse-splicing fitness of 0.00715. C82G A111U A120C A145G C150G C169A U176G showed a reverse-splicing fitness of 0.0104. Work on C82G A111U A120C A145G C150G C169A U176A yielded a reverse-splicing fitness of 0.0145. For C82G A111U A120C A145G C150G C169A U176C, the reverse-splicing fitness was 0.0149. C82G A111U A120C A145G C150U C169G U176G gave a reverse-splicing fitness of 0.00632. C82G A111U A120C A145G C150U C169G U176A gave a reverse-splicing fitness of 0.0154. Variant C82G A111U A120C A145G C150U C169G U176C has a reverse-splicing fitness of 0.0196. With C82G A111U A120C A145G C169U the reverse-splicing fitness was 0.0141. Work on C82G A111U A120C A145G C169A yielded a reverse-splicing fitness of 0.0109. Variant C82G A111U A120C A145G C169G has a reverse-splicing fitness of 0.00963. With C82G A111U A120C A145G C150A C169A the reverse-splicing fitness was 0.0113. C82G A111U A120C A145G C150A C169G showed a reverse-splicing fitness of 0.00949. Work on C82G A111U A120C A145G C150A C169U yielded a reverse-splicing fitness of 0.0121. In the case of C82G A111G C150U C169A U176G, the reverse-splicing fitness is reported as 0.00685. For C82G A111G C150U C169A U176C, the reverse-splicing fitness was 0.0178. Work on C82G A111G C150U C169A U176A yielded a reverse-splicing fitness of 0.0173. In the case of C82G A111U A120C A145U C150A C169U U176G, the reverse-splicing fitness is reported as 0.00715. C82G A111U A120C A145U C150A C169U U176A showed a reverse-splicing fitness of 0.0146. C82G A111U A120C A145U C150A C169U U176C gave a reverse-splicing fitness of 0.0141. For C82G A111U A120C A145G C150G C169U U176A, the reverse-splicing fitness was 0.0139. Work on C82G A111U A120C A145G C150G C169U U176C yielded a reverse-splicing fitness of 0.0123. Variant C82G A111U A120C A145G C150G C169U U176G has a reverse-splicing fitness of 0.00871. With C82G A111G C150U U176G the reverse-splicing fitness was 0.0512. Variant C82G A111G C150U U176C has a reverse-splicing fitness of 0.144. In the case of C82G A111G C150U U176A, the reverse-splicing fitness is reported as 0.128. Work on C82G A111U A120C A145C C169U U176C yielded a reverse-splicing fitness of 0.0128. Work on C82G A111U A120C A145C C169U U176G yielded a reverse-splicing fitness of 0.00455. C82G A111U A120C A145C C169U U176A showed a reverse-splicing fitness of 0.0148. With C82G A111U A120C A145G C150G C169G U176G the reverse-splicing fitness was 0.00661. In the case of C82G A111U A120C A145G C150G C169G U176A, the reverse-splicing fitness is reported as 0.0117. For C82G A111U A120C A145G C150G C169G U176C, the reverse-splicing fitness was 0.0139. With C82G A111U A120C A145U C150U C169A U176C the reverse-splicing fitness was 0.0135. For C82G A111U A120C A145U C150U C169A U176A, the reverse-splicing fitness was 0.0178. Variant C82G A111U A120C A145U C150U C169A U176G has a reverse-splicing fitness of 0.00636. For C82G A111U A120C A145G C150A C169G U176C, the reverse-splicing fitness was 0.0297. In the case of C82G A111U A120C A145G C150A C169G U176G, the reverse-splicing fitness is reported as 0.00823. In the case of C82G A111U A120C A145G C150A C169G U176A, the reverse-splicing fitness is reported as 0.0181. Work on C82G A111G A145U C150U C169U U176G yielded a reverse-splicing fitness of 0.00549. Variant C82G A111G A145U C150U C169U U176C has a reverse-splicing fitness of 0.0137. C82G A111G A145U C150U C169U U176A showed a reverse-splicing fitness of 0.0134. Variant C82G A111G A145U C150U C169A U176A has a reverse-splicing fitness of 0.015. With C82G A111G A145U C150U C169A U176G the reverse-splicing fitness was 0.00584. C82G A111G A145U C150U C169A U176C gave a reverse-splicing fitness of 0.0132. For C82G A111U A120C A145C C150U U176C, the reverse-splicing fitness was 0.0178. Variant C82G A111U A120C A145C C150U U176A has a reverse-splicing fitness of 0.0111. C82G A111U A120C A145C C150U U176G gave a reverse-splicing fitness of 0.00601. For C82G A111U A120C A145C C150G C169U, the reverse-splicing fitness was 0.00834. In the case of C82G A111U A120C A145C C150G C169A, the reverse-splicing fitness is reported as 0.0104. Work on C82G A111U A120C A145C C150G C169G yielded a reverse-splicing fitness of 0.00735. Variant C82G A111U A120C A145C C169A has a reverse-splicing fitness of 0.00886. For C82G A111U A120C A145C C169U, the reverse-splicing fitness was 0.0119. In the case of C82G A111U A120C A145C C169G, the reverse-splicing fitness is reported as 0.00986. C82G A111U A120C A145G C150U C169A U176G showed a reverse-splicing fitness of 0.00812. C82G A111U A120C A145G C150U C169A U176A gave a reverse-splicing fitness of 0.0177. Variant C82G A111U A120C A145G C150U C169A U176C has a reverse-splicing fitness of 0.0177. Work on C82G A111G A145G C169U U176C yielded a reverse-splicing fitness of 0.0155. Work on C82G A111G A145G C169U U176A yielded a reverse-splicing fitness of 0.0132. C82G A111G A145G C169U U176G gave a reverse-splicing fitness of 0.0049. For C82G A111G C169A U176C, the reverse-splicing fitness was 0.0224. C82G A111G C169A U176A showed a reverse-splicing fitness of 0.0162. C82G A111G C169A U176G showed a reverse-splicing fitness of 0.00537. C82G A111U A120C A145C C150A C169A U176G gave a reverse-splicing fitness of 0.00706. In the case of C82G A111U A120C A145C C150A C169A U176A, the reverse-splicing fitness is reported as 0.0162.
